Measurements reported in patent US20230407373A1 (priority 2020, published 2023).
Like-named read-outs stand apart in the source and are kept apart here.

Columns and labels:
Assay type in all cases: binding
[1] = tested on: SARS-CoV-2 gRNA; conditions: for target (unweighted spectral count of the protein in the RNP capture): LC-MS/MS, Probe I sample (first 199 lines of Table 2)
[2] = tested on: SARS-CoV-2 gRNA and sgRNAs; conditions: for target (unweighted spectral count in RNP capture): Probe II capture, LC-MS/MS LFQ; for background (unweighted spectral count in control): no-probe control pull-down, used as background for Probe II
[3] = tested on: HCoV-OC43 gRNA and sgRNA
[4] = 36 hpi, type n_36_v, tested against no-probe control, FDR<10%
[5] = OC43 Probe II, 12 hpi (type n_12_v), infected cells, tested against no-probe control
[6] = OC43 Probe II, 24 hpi (type n_24_v), infected cells, tested against no-probe control
[7] = type n_48_v, 48 hpi, OC43 Probe II capture on infected cells
[8] = type n_48_v, 48 hpi, no-probe control on infected cells
[9] = 24 hpi, type n_24_v, tested against no-probe control, FDR<10%

Molecule	target (unweighted spectral count of the protein in the RNP capture) ([1]; […])	target (unweighted spectral count in RNP capture) [2]	background (unweighted spectral count in control) [2]	target (unweighted spectral count, OC43 Probe II capture) [3, 4]	target (unweighted spectral count) [3, 5]	target (unweighted spectral count) [3, 6]	target (unweighted spectral count, OC43 Probe II) [3, 7]	background (unweighted spectral count, no-probe control) [3, 8]	target (unweighted spectral count in RNP capture) ([1]; Probe I capture, […], LC-MS/MS LFQ)	background (unweighted spectral count in control) ([1]; no-probe control pull-down, used as background for Probe I)	target (unweighted spectral count, OC43 Probe II capture) [3, 9]	target (unweighted spectral count, OC43 Probe II) ([3]; type n_36_v, 36 hpi, OC43 Probe II capture on infected cells)	background (unweighted spectral count, no-probe control) ([3]; type n_36_v, 36 hpi, no-probe control on infected cells)	background (unweighted spectral count, no-probe control) [3]	target (unweighted spectral count) [3]	target (unweighted spectral count, OC43 Probe II capture) [3]	target (unweighted spectral count, OC43 Probe II) [3]
FUS (protein, UniProt P35637 1-526, looked up) RNA-binding protein FUS: MASNDYTQQATQSYGAYPTQPGQGYSQQSSQPYGQQSYSGYSQSTDTSGYGQSSYSSYGQSQNTGYGTQSTPQGYGSTGGYGSSQSSQSSYGQQSSYPGYGQQPAPSSTSGSYGSSSQSSSYGQPQSGSYSQQPSYGGQQQSYGQQQSYNPPQGYGQQNQYNSSSGGGGGGGGGGNYGQDQSSMSSGGGSGGGYGNQDQSGGGGSGGYGQQDRGGRGRGGSGGGGGGGGGGYNRSSGGYEPRGRGGGRGGRGGMGGSDRGGFNKFGGPRDQGSRHDSEQDNSDNNTIFVQGLGENVTIESVADYFKQIGIIKTNKKTGQPMINLYTDRETGKLKGEATVSFDDPPSAKAAIDWFDGKEFSGNPIKVSFATRRADFNRGGGNGRGGRGRGGPMGRGGYGGGGSGGGGRGGFPSGGGGGGGQQRAGDWKCPNPTCENMNFSWRNECNQCKAPKPDGPGGGPGGSHMGGNYGDDRRGGRGGYDRGGYRGRGGDRGGFRGGRGGGDRGGFGPGKMDSRGEHRQDRRERPY	5	7	1	7	6	9	11	1									
EDF1 (protein, UniProt O60869 2-148, looked up) Endothelial …: AESDWDTVTVLRKKGPTAAQAKSKQAILAAQRRGEDVETSKKWAAGQNKQHSITKNTAKLDRETEELHHDRVTLEVGKVIQQGRQSKGLTQKDLATKINEKPQVIADYESGRAIPNNQVLGKIERAIGLKLRGKDIGKPIEKGPRAK		8	1						5	1	4						
KHSRP (protein, UniProt Q92945 2-711, looked up) Far upstream element-binding …: SDYSTGGPPPGPPPPAGGGGGAGGAGGGPPPGPPGAGDRGGGGPGGGGPGGGSAGGPSQPPGGGGPGIRKDAFADAVQRARQIAAKIGGDAATTVNNSTPDFGFGGQKRQLEDGDQPESKKLASQGDSISSQLGPIHPPPRTSMTEEYRVPDGMVGLIIGRGGEQINKIQQDSGCKVQISPDSGGLPERSVSLTGAPESVQKAKMMLDDIVSRGRGGPPGQFHDNANGGQNGTVQEIMIPAGKAGLVIGKGGETIKQLQERAGVKMILIQDGSQNTNVDKPLRIIGDPYKVQQACEMVMDILRERDQGGFGDRNEYGSRIGGGIDVPVPRHSVGVVIGRSGEMIKKIQNDAGVRIQFKQDDGTGPEKIAHIMGPPDRCEHAARIINDLLQSLRSGPPGPPGGPGMPPGGRGRGRGQGNWGPPGGEMTFSIPTHKCGLVIGRGGENVKAINQQTGAFVEISRQLPPNGDPNFKLFIIRGSPQQIDHAKQLIEEKIEGPLCPVGPGPGGPGPAGPMGPFNPGPFNQGPPGAPPHAGGPPPHQYPPQGWGNTYPQWQPPAPHDPSKAAAAAADPNAAWAAYYSHYYQQPPGPVPGPAPAPAAPPAQGEPPQPPPTGQSDYTKAWEEYYKKIGQQPQQPGAPPQQDYTKAWEEYYKKQAQVATGGGPGAPPGSQPDYSAAWAEYYRQQAAYYGQTPGPGGPQPPPTQQGQQQAQ	128	82	1	76	23	47	86	5									
MAP4 (protein, UniProt P27816 2-1152, looked up) Microtubule-associated …: ADLSLADALTEPSPDIEGEIKRDFIATLEAEAFDDVVGETVGKTDYIPLLDVDEKTGNSESKKKPCSETSQIEDTPSSKPTLLANGGHGVEGSDTTGSPTEFLEEKMAYQEYPNSQNWPEDTNFCFQPEQVVDPIQTDPFKMYHDDDLADLVFPSSATADTSIFAGQNDPLKDSYGMSPCNTAVVPQGWSVEALNSPHSESFVSPEAVAEPPQPTAVPLELAKEIEMASEERPPAQALEIMMGLKTTDMAPSKETEMALAKDMALATKTEVALAKDMESPTKLDVTLAKDMQPSMESDMALVKDMELPTEKEVALVKDVRWPTETDVSSAKNVVLPTETEVAPAKDVTLLKETERASPIKMDLAPSKDMGPPKENKKETERASPIKMDLAPSKDMGPPKENKIVPAKDLVLLSEIEVAQANDIISSTEISSAEKVALSSETEVALARDMTLPPETNVILTKDKALPLEAEVAPVKDMAQLPETEIAPAKDVAPSTVKEVGLLKDMSPLSETEMALGKDVTPPPETEVVLIKNVCLPPEMEVALTEDQVPALKTEAPLAKDGVLTLANNVTPAKDVPPLSETEATPVPIKDMEIAQTQKGISEDSHLESLQDVGQSAAPTFMISPETVTGTGKKCSLPAEEDSVLEKLGERKPCNSQPSELSSETSGIARPEEGRPVVSGTGNDITTPPNKELPPSPEKKTKPLATTQPAKTSTSKAKTQPTSLPKQPAPTTIGGLNKKPMSLASGLVPAAPPKRPAVASARPSILPSKDVKPKPIADAKAPEKRASPSKPASAPASRSGSKSTQTVAKTTTAAAVASTGPSSRSPSTLLPKKPTAIKTEGKPAEVKKMTAKSVPADLSRPKSTSTSSMKKTTTLSGTAPAAGVVPSRVKATPMPSRPSTTPFIDKKPTSAKPSSTTPRLSRLATNTSAPDLKNVRSKVGSTENIKHQPGGGRAKVEKKTEAAATTRKPESNAVTKTAGPIASAQKQPAGKVQIVSKKVSYSHIQSKCGSKDNIKHVPGGGNVQIQNKKVDISKVSSKCGSKANIKHKPGGGDVKIESQKLNFKEKAQAKVGSLDNVGHLPAGGAVKTEGGGSEAPLCPGPPAGEEPAISEAAPEAGAPTSASGLNGHPTLSGGGDQREAQTLDSQIQETSI	14		1		5						8	11	4				
MBNL1 (protein, UniProt Q9NR56 1-388, looked up) Muscleblind-like protein 1: MAVSVTPIRDTKWLTLEVCREFQRGTCSRPDTECKFAHPSKSCQVENGRVIACFDSLKGRCSRENCKYLHPPPHLKTQLEINGRNNLIQQKNMAMLAQQMQLANAMMPGAPLQPVPMFSVAPSLATNASAAAFNPYLGPVSPSLVPAEILPTAPMLVTGNPGVPVPAAAAAAAQKLMRTDRLEVCREYQRGNCNRGENDCRFAHPADSTMIDTNDNTVTVCMDYIKGRCSREKCKYFHPPAHLQAKIKAAQYQVNQAAAAQAAATAAAMTQSAVKSLKRPLEATFDLGIPQAVLPPLPKRPALEKTNGATAVFNTGIFQYQQALANMQLQQHTAFLPPVPMVHGATPATVSAATTSATSVPFAATATANQIPIISAEHLTSHKYVTQM	19	32	1		5												
SRSF7 (protein, UniProt Q16629 1-238, looked up) Serine/arginine-rich splicing …: MSRYGRYGGETKVYVGNLGTGAGKGELERAFSYYGPLRTVWIARNPPGFAFVEFEDPRDAEDAVRGLDGKVICGSRVRVELSTGMPRRSRFDRPPARRPFDPNDRCYECGEKGHYAYDCHRYSRRRRSRSRSRSHSRSRGRRYSRSRSRSRGRRSRSASPRRSRSISLRRSRSASLRRSRSGSIKGSRYFQSPSRSRSRSRSISRPRSSRSKSRSPSPKRSRSPSGSPRRSASPERMD	21	16	1											4	5	14	19
DDX17 (protein, UniProt Q92841 1-729, looked up) Probable ATP-dependent RNA …: MPTGFVAPILCVLLPSPTREAATVASATGDSASERESAAPAAAPTAEAPPPSVVTRPEPQALPSPAIRAPLPDLYPFGTMRGGGFGDRDRDRDRGGFGARGGGGLPPKKFGNPGERLRKKKWDLSELPKFEKNFYVEHPEVARLTPYEVDELRRKKEITVRGGDVCPKPVFAFHHANFPQYVMDVLMDQHFTEPTPIQCQGFPLALSGRDMVGIAQTGSGKTLAYLLPAIVHINHQPYLERGDGPICLVLAPTRELAQQVQQVADDYGKCSRLKSTCIYGGAPKGPQIRDLERGVEICIATPGRLIDFLESGKTNLRRCTYLVLDEADRMLDMGFEPQIRKIVDQIRPDRQTLMWSATWPKEVRQLAEDFLRDYTQINVGNLELSANHNILQIVDVCMESEKDHKLIQLMEEIMAEKENKTIIFVETKRRCDDLTRRMRRDGWPAMCIHGDKSQPERDWVLNEFRSGKAPILIATDVASRGLDVEDVKFVINYDYPNSSEDYVHRIGRTARSTNKGTAYTFFTPGNLKQARELIKVLEEANQAINPKLMQLVDHRGGGGGGGGRSRYRTTSSANNPNLMYQDECDRRLRGVKDGGRRDSASYRDRSETDRAGYANGSGYGSPNSAFGAQAGQYTYGQGTYGAAAYGTSSYTAQEYGAGTYGASSTTSTGRSSQSSSQQFSGIGRSGQQPQPLMSQQFAQPPGATNMIGYMGQTAYQYPPPPPPPPPSRK	24	15	1	17		9											
